Experimental data taken from US20130171217A1, “ENZYMATIC PERACID GENERATION FOR USE IN SKIN CARE PRODUCTS” (E I DU PONT DE NEMOURS AND COMPANY, priority 2010, published 2013).
Marks after values point to notes of the source that are not given here.

Key:
[1] = Perhydrolase activity remaining bound to hair, ABTS assay; assay type: binding, human
Description: Ten mg of human hair was submerged in 2 mL of a binding solution containing 50 μg/mL of the Thermotoga maritima perhydrolase targeted to hair via the hair binding peptide HC263 (C277S-HC263; SEQ ID NO: 288; also referred to herein as “HC1121”) in 50 mM pH 7.2 potassium phosphate buffer containing 5% of the test surfactant. The test surfactants were two nonionic surfactants: TWEEN®-20 (Sigma, St Louis, Mo.), and TRITON®-X 100 (Aldrich, St Louis, Mo.), and two ionic surfactants: CHEMBETAINE™ CAD (Cocamidopropyl betaine; Lubrizol, Wickliffe, Ohio) and RHODAPEX® ES-2K (sodium laurel ether sulfate; Rhodia Novecare, Cranbury, N.J.).
Hair was incubated in the binding solution at room temperature (˜22° C.) with gentle agitation for 30 minutes, at which time the solution was removed by aspiration and the hair rinsed with 1% TWEEN®-20 in 50 mM pH 7.2 potassium phosphate buffer. The hair was removed from the tube, blotted dry with paper towel, and transferred to a new set of tubes. The hair was rinsed once with 1% TWEEN®-20 in 50 mM pH 7.2 potassium phosphate buffer and then rinsed three times with 50 mM pH 7.2 potassium phosphate buffer. Perhydrolase activity remaining bound to the hair was determined by the ABTS assay.
The ABTS assay was performed as follows: hair samples treated as described above were transferred to new 2-mL microcentrifuge tubes (Eppendorf Protein LoBind; Eppendorf North America, Hauppauge, N.Y.) To each tube was added 480 μL of PAH buffer (50 mM potassium phosphate, pH 7.2), 14 μL of 39% hydrogen peroxide (Sigma 3410), and 6 μL triacetin (Sigma-Aldrich W200700). The perhydrolase reaction was allowed to proceed for 10 minutes at room temperature (˜22-25° C.). The reaction was stopped by diluting aliquots 10×, 100× and 1000× with 10 mM phosphoric acid. For detection 50 μL of 1 M acetic acid, 50 μL of 40 mg/mL potassium iodide, and 50 μL of 4 mM ABTS (2,2′-azino-bis(3-ethylbenzthiazoline-6-sulphonic acid; Sigma, St Louis, Mo.) were added to 50 μL of the above dilutions. Color was allowed to develop for 10 minutes and read in a spectrophotometer at 405 nm. Values from no-enzyme controls were subtracted to yield values attributable only to enzyme activity. A standard curve of OD 405 nm vs PAA concentration in ppm yielded a conversion factor of 8.75, such that an OD 405 nm of 1.0 corresponded to approximately 8.75 ppm PAA. This value was then multiplied by the appropriate dilution to arrive at the PAA concentration in the perhydrolase reaction.
The Thermotoga maritima perhydrolase targeted to hair via the hair binding peptide HC263 (C277S-HC263; SEQ ID NO: 288) was diluted to 50 μg/mL in a solution of 5% PEG-80 sorbitan laurate in 100 mM citrate-phosphate buffer adjusted to pH 4.9, pH 5.5, pH 6.0, or pH 7.0. Ten mg of human hair was added to 2 mL of the above formulations and incubated with gentle agitation for 5 minutes at room temperature to allow enzyme binding to hair. A no-enzyme control sample was included with each pH. After binding, the binding solution was removed by aspiration and the hair was washed with 2 mL of 1% TWEEN®-20 in 50 mM pH 7.2 potassium phosphate buffer. The hair was removed from the tube, blotted dry with paper towel, and transferred to a new set of tubes. The hair was rinsed once with 1% TWEEN®-20 in 50 mM pH 7.2 potassium phosphate buffer and then rinsed three time with 50 mM pH 7.2 potassium phosphate buffer. Perhydrolase activity remaining bound to the hair was determined by the ABTS assay. The results are given as ppm PAA produced at 10 minutes (after subtraction of the no-enzyme control values)
The Thermotoga maritima perhydrolase targeted to hair via the hair binding peptide HC263 (C277S-HC263; SEQ ID NO: 288) was diluted to 50 μg/mL in a solution of 5% PEG-80 sorbitan laurate in 100 mM citrate-phosphate buffer adjusted to pH 6.0. […]

[2] = Single fiber tensile strength after one-step enzymatic application
Description: Hair samples were cut into pieces 4-inches in length. The denier number (liner mass density) of each hair fiber was measured by Textechno Vibromat Instrument (Textechno Herbert Stein GmbH & Co. KG; Germany). The hair fibers were tested according to ASTM D 3822-01 (“Tensile Properties of Single Textile Fibers”; ASTM International, West Conshohocken, Pa., 2001), on an Instron testing system (Instron Model 1122 Tester; Instron, Mass.) at about 70° F. (approximately 21° C.) and 65% relative humidity. The treated area of the hair sample was placed in the middle of the gauge and both ends were gripped on the test heads. Both fiber ends were attached on a piece of tape, respectively, for easy handling and gripping on the test heads. The test used 2-inch (5.1 cm) gauge length, […], and 1.2 inch/min (3 cm/min) pulling rate. The force-strain curve of the fiber was recorded during the test. The tenacity at maximum (gf/den) was calculated by dividing maximum force (gf) by denier number (den). Note that (gf/den)/11.33=Newtons/tex (N/tex).
The first method (referred to herein as the “one-step approach”) comprises combining different amounts of at least one CE-7 perhydrolase with triacetin (an example of a suitable ester substrate) and hydrogen peroxide to generate peracetic acid. Hair bundles were inserted into “one step approach” solutions for 15 min immediately after mixing the enzyme solution with triacetin solution (final concentration was about 100 mM) and H2O2 solution (final concentration was about 250 mM). The hair samples were rinsed with water and dried. The method was repeated for another 15 times (total application was 16 times). In one experiment, two perhydrolase enzymes were used, i.e., untargeted T. maritima variant C277S (“C277S”; “PAH”; SEQ ID NO: 293) and “C277S-HC263” (SEQ ID NO: 288). The concentration of peracetic acid in solution after 15 min was evaluated by HPLC.

[3] = 50 μg/mL, pH 6.0, binding 1 min, at 10 minutes

B1: SEQ ID NO: 323: S54V variant of the aryl esterase from Mycobacterium smegmatis fused to hair binding domain HC263 via a flexible linker (protein)
chain: MAKRILCFGDSLTWGWVPVEDGAPTERFAPDVRWTGVLAQQLGADFEVIEEGLVARTTNIDDPTDPRLNGASYLPSCLATHLPLDLVIIMLGTNDTKAYFRRTPLDIALGMSVLVTQVLTSAGGVGTTYPAPKVLVVSPPPLAPMPHPWFQLIFEGGEQKTTELARVYSALASFMKVPFFDAGSVISTDGVDGIHFTEANNRDLGVALAEQVRSLLGPGSGGAGSPGSAGGPGSPSAQSQLPDKHSGLHERAPQRYGPEPEPEPEPIPEPPKEAPVVIEKPKPKPKPKPKPPAHDHKNQKETHQRHAAGSGGGGSPHHHHHH
[1]; 50 μg/mL, binding 1 min, hair with no PAA treatment
  ppm PAA: 269 ppm
[1]; 50 μg/mL, binding 1 min, hair with one PAA treatment (0.2% PAA, 1 hr)
  ppm PAA: 526 ppm
[1]; 50 μg/mL, binding 1 min, hair with two PAA treatments
  ppm PAA: 702 ppm
[1]; [3]
  OD 405nm: 0.237
  Peracetic acid: 207 ppm

B2: C277S-HC263: C277S variant of Thermotoga maritima perhydrolase fused via a flexible linker to hair-binding domain HC263 (protein)
chain: MAFFDLPLEELKKYRPERYEEKDFDEFWEETLAESEKFPLDPVFERMESHLKTVEAYDVTFSGYRGQRIKGWLLVPKLEEEKLPCVVQYIGYNGGRGFPHDWLFWPSMGYICFVMDTRGQGSGWLKGDTPDYPEGPVDPQYPGFMTRGILDPRTYYYRRVFTDAVRAVEAAASFPQVDQERIVIAGGSQGGGIALAVSALSKKAKALLCDVPFLCHFRRAVQLVDTHPYAEITNFLKTHRDKEEIVFRTLSYFDGVNFAARAKIPALFSVGLMDNISPPSTVFAAYNYYAGPKEIRIYPYNNHEGGGSFQAVEQVKFLKKLFEKGGPGSGGAGSPGSAGGPGSPSAQSQLPDKHSGLHERAPQRYGPEPEPEPEPIPEPPKEAPVVIEKPKPKPKPKPKPPAHDHKNQKETHQRHAAGSGGGGSPHHHHHH
[2]; 0.05 mg/mL enzyme, urea 0 wt %, 15 min × 16
  Ten. @ Max: 1.0 gf/den
[2]; 0.25 mg/mL enzyme, urea 0 wt %, 15 min × 16, average of less than 3 strands
  Ten. @ Max: 0.4^# gf/den
[2]; 0.5 mg/mL enzyme, urea 0 wt %, 15 min × 16
  Ten. @ Max: 0.7 gf/den
[1]; 50 μg/mL enzyme bound 30 min in 5% CHEMBETAINE™ CAD
  Perhydrolase Activity Retained on Hair, ppm PAA: 455 ppm
[1]; 50 μg/mL enzyme bound 30 min in 5% RHODAPEX® ES-2K
  Perhydrolase Activity Retained on Hair, ppm PAA: 315 ppm
[1]; 50 μg/mL enzyme bound 30 min in 5% TRITON®-X 100
  Perhydrolase Activity Retained on Hair, ppm PAA: 1540 ppm
[1]; 50 μg/mL enzyme bound 30 min in 5% TWEEN®-20
  Perhydrolase Activity Retained on Hair, ppm PAA: 2126 ppm
[1]; 50 μg/mL, 5% PEG-80 sorbitan laurate pH 6.0, binding 10 min, PAA at 10 minutes
  ppm PAA: 581 ppm
[1]; 50 μg/mL, 5% PEG-80 sorbitan laurate pH 6.0, binding time 0.5 min
  Perhydrolase Activity Deposited on Hair, ppm PAA: 954 ppm
[1]; 50 μg/mL, 5% PEG-80 sorbitan laurate, binding 5 min, pH 4.9
  Perhydrolase Activity Deposited on Hair, ppm PAA: 437 ppm
[1]; binding 5 min, pH 5.5
  Perhydrolase Activity Deposited on Hair, ppm PAA: 1312 ppm
[1]; binding 5 min, pH 6.0
  Perhydrolase Activity Deposited on Hair, ppm PAA: 1137 ppm
[1]; binding 5 min, pH 7.0
  Perhydrolase Activity Deposited on Hair, ppm PAA: 385 ppm
[1]; bound in 5% CHEMBETAINE™ CAD
  values obtained (ABTS assay): 0.52
[1]; bound in 5% RHODAPEX® ES-2K
  values obtained (ABTS assay): 0.36
[1]; bound in 5% TRITON®-X 100
  values obtained (ABTS assay): 1.76
[1]; bound in 5% TWEEN®-20
  values obtained (ABTS assay): 2.43
[1]; pH 6.0, binding time 1 min
  Perhydrolase Activity Deposited on Hair, ppm PAA: 962 ppm
[1]; pH 6.0, binding time 2 min
  Perhydrolase Activity Deposited on Hair, ppm PAA: 988 ppm
[1]; pH 6.0, binding time 5 min
  Perhydrolase Activity Deposited on Hair, ppm PAA: 1093 ppm

B3: C277S: non-targeted C277S variant of the Thermotoga maritima perhydrolase, un-targeted control (protein, listed as Thermotoga maritima)
chain: MAFFDLPLEELKKYRPERYEEKDFDEFWEETLAESEKFPLDPVFERMESHLKTVEAYDVTFSGYRGQRIKGWLLVPKLEEEKLPCVVQYIGYNGGRGFPHDWLFWPSMGYICFVMDTRGQGSGWLKGDTPDYPEGPVDPQYPGFMTRGILDPRTYYYRRVFTDAVRAVEAAASFPQVDQERIVIAGGSQGGGIALAVSALSKKAKALLCDVPFLCHFRRAVQLVDTHPYAEITNFLKTHRDKEEIVFRTLSYFDGVNFAARAKIPALFSVGLMDNISPPSTVFAAYNYYAGPKEIRIYPYNNHEGGGSFQAVEQVKFLKKLFEKG
[2]; 0.05 mg/mL enzyme, urea 10 wt %, 15 min × 16
  Ten. @ Max: 0.3 gf/den
[2]; 0.25 mg/mL enzyme, urea 10 wt %, 15 min × 16, average of less than 3 strands
  Ten. @ Max: 0.6^# gf/den
[2]; 0.5 mg/mL enzyme, urea 10 wt %, 15 min × 16
  Ten. @ Max: 0.6 gf/den
